Results: US11059903B2, “Anti-PSMA antibodies, uses thereof and conjugates thereof” (Polytherics Limited, priority 2016, dated 2021)
Square brackets hold non-standard residues; d marks the D form. Peptide text beside a SMILES is read from it. * marks the point of attachment. Dolaproine = CO[C@@H]([C@@H]1CCCN1)[C@@H](C)C(=O)O; Dil = CC[C@H](C)[C@H](NC)[C@@H](CC(=O)O)OC; X1 = C[C@@H](N*)[C@@H](O)c1ccccc1; NMeV = CN[C@H](C(=O)O)C(C)C

Key:
[1] = Heat stress test, aggregation analysed by SEC; type: physicochemical
Experimental: Antibody samples (0.5 mg/mL in PBS) were incubated at 75° C. for 30 min followed by incubation in an ice-bath for 5 min prior to being analysed for their extent of aggregation. Analysis of antibody solutions was carried out by Size Exclusion Chromatography (SEC) and by turbidity measurements.
SEC was performed using a TOSOH Bioscience TSK gel Super SW 3000 column. UV absorbance at 280 nm was monitored during an isocratic elution with a 0.2 M Potassium phosphate buffer, pH 6.8 (0.2 M potassium chloride and 15% isopropanol). The elution times and number of peaks indicate whether the sample contains aggregated, degraded or native antibody. The % area under the curve (Abs280) was used to determine the quantity of each species present in the SEC analysis.

[2] = system: LNCaP cells; assay: In vitro cell viability assay (CellTiter Glo) on LNCaP cells; type: cell-based; settings: anti-proliferative effect, 96 h
Experimental: (§1) The in vitro efficacies of ADCs 1 to 7, prepared as described within Example 4, were determined by measuring their inhibitory effect upon cell growth of PSMA over-expressing cancer cell lines.
(§2) Loss of tumour cell viability following treatment with cytotoxic drugs or ADCs in vitro can be measured by growing cell lines in the presence of increasing concentrations of drugs or ADCs and quantifying the loss of proliferation or metabolic activity using CellTiter Glo® Luminescence reagent (Promega Corp.). The protocol describes cell seeding, drug treatment and determination of the cell viability in reference to untreated cells based on ATP synthesis, which is directly related to the number of cells present in the well. […]
(§3) The cell viability assay was carried out using the Cell-Titer Glo® Luminescence reagent, as described by the manufacturer's instructions, (Promega Corp. Technical Bulletin TB288; Lewis Phillips G. D, Cancer Res 2008; 68:9280-9290). Luminescence was recorded using a plate reader (e.g. Molecular Devices Spectramax M3 plate reader), and data subsequently analysed using a four parameter non-linear regression model. […]
(§4) PSMA-positive LNCaP (clone FGC) and C4-2 cells were detached with TrypLE and resuspended in complete medium. Cells were counted using disposable Neubauer counting chambers and cell density adjusted to 10×10^4 cells/mL for LNCaP and 2×10^4 cells/mL for C4-2. […]

[3] = system: C4-2 cells; assay: In vitro cell viability assay (CellTiter Glo) on C4-2 cells; type: cell-based; settings: anti-proliferative effect, 96 h
Experimental: as §1, §2, §3, §4

[4] = post stress test: 0.5 mg/mL in PBS, 75° C. for 30 min, SEC % area

| Molecule | Stability compared with AB-02 to AB-06 antibodies ([1]; heat stress test, in words) | Ab in aggregated form (%) [1, 4] [%] | Ab in native conformation (%) [1, 4] [%] | IC50 [2] [nM] | IC50 [3] [nM] |
| --- | --- | --- | --- | --- | --- |
| AB-10: Prior art de-immunised J591 anti-PSMA antibody, heavy chain SEQ ID No 3, light chain SEQ ID No 4 [reference compound] | less stable | 99.6 | 0.4 |  |  |
| CC[C@H](C)[C@@H]([C@@H](CC(=O)N1CCC[C@H]1[C@H](OC)[C@@H](C)C(=O)N[C@H](C)[C@@H](O)c1ccccc1)OC)N(C)C(=O)[C@@H](NC(=O)[C@@H](NC)C(C)C)C(C)C [MMAE] (H-[NMeV]V[Dil][Dolaproine]-X1) |  |  |  | 2.23 | 0.63 |
